Publication PMC9687312

Assays:
[1] = target: MGL Biot-ECD (biotinylated extracellular domain of MGL) (UniProt Q8IUN9); experiment: SPR
[2] = target: DC-SIGN Biot-ECD (biotinylated extracellular domain of DC-SIGN) (UniProt Q9NNX6); experiment: SPR
Sequence of UniProt Q9NNX6 (Q9NNX6 59-404): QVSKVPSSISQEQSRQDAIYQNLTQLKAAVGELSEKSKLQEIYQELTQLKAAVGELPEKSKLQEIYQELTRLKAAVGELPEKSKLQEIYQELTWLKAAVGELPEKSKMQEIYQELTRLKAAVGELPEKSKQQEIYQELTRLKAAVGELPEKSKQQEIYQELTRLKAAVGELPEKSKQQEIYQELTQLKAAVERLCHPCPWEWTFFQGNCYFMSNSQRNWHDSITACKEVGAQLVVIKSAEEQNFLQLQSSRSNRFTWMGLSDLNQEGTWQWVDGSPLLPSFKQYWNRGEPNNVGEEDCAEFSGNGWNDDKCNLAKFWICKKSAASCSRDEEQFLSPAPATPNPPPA

Sequence of UniProt Q8IUN9 (Q8IUN9 61-316): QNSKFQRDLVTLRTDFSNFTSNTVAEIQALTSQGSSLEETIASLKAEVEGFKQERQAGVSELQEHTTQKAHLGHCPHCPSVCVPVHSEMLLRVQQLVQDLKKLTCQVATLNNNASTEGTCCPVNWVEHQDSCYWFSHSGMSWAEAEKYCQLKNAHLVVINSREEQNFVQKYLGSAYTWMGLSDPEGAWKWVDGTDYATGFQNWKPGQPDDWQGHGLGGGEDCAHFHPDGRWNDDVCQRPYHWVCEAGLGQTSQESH

Substance “ADD KGE RBD (ADD-KGE/RBD-SC covalent complex) (from UniProt Q2Y0H9 1-544; P0DTC2 320-554)” has a Kd [1] of 66.1 nM and a Kd [2] of 0.34 nM.
